From the DeepSol protein solubility set

assay: soluble on expression in E. coli; label from the status in PepcDB or PDB records

Sequence | soluble on expression in E. coli
MGSDKIHHHHHHMVTGASGFVGSALCCELARTGYAVIAVVRRVVERIPSVTYIEADLTDPATFAGEFPTVDCIIHLAGRAHILTDKVADPLAAFREVNRDATVRLATRALEAGVKRFVFVSSIGVNGNSTRQQAFNEDSPAGPHAPYAISKYEAEQELGTLLRGKGMELVVVRPPLIYANDAPGNFGRLLKLVASGLPLPLDGVRNARSLVSRRNIVGFLSLCAEHPDAAGELFLVADGEDVSIAQMIEALSRGMGRRPALFTFPAVLLKLVMCLLGKASMHEQLCGSLQVDASKARRLLGWVPVETIGAGLQAAGREYILRQRERRK | not soluble
MAGPSDRTFSDQTEEIMQATYRALREHGYADLTIQRIADEYGKSTAAVHYYYDTKDDLLAAFLDYLLERFVDSIHDVETTDPEARLNLLLDELLVKPQENPDLSVALLEMRSQAPYKEAFSDRFRQNDEYVRYMLKAVINHGIDEGVFTDVDAEHVTRSLLTIIDGARTRAVMLDDTEELETARQTASEYADAMLQ | soluble
MSLRFIDKLYQANLGKLTAGISPAALGTAYYSWFAQLLQSPGSMLRLAYYPLLHANDYLSNLFKYDKPRDGKDVRFHTENWSYYPWRLWAEQFLQFEDWCLQASSKVPGIPLHVKRTVTFSTRQILDALSPSNFVLTNPDLLQETIRSNGQNLIRGTELAFQDFVEKITGSPPAGVENFIPGKQVAVTEGKVVYSNHLIELIQYTPQTEKVYKEPILILPAWIMKYYILDLLPENSLVNWLVRQGHTVFIVSWRNPTKEDRNIGLDDYYKLGAMDAINAVSNAIPHTKIHLMGYCLGGTLALLTAAAMAHDHDNRLKTLSLLAAQGDFIDAGELLLFITKSEVSFLKSMMWEQGYLDTKQMSGTFQMLRSYDLIWSKMVQDYMHGTQRGMIPLLAWNADATRMPYKMHSEYLEKLFLNNDFAEGRFILDGKPVVGENIRMPAFVVSTEKDHVAPWKSVYKTHLLINSDITFVLTNGGHNAGIVSEPGHEGRYYRIRERKMDSTYLDPTNWLKKAELREGSWWIAWHDWLVNHSSQKQVSAPKLDKNLPNAPGKYVLQKEGHHHHHH | not soluble
MGSDKIHHHHHHMIFDGYEAYRAANFKPKVCILGSGPAGTTIARKLGAAGIPVVVLEAGSREFSDESQDFYRGTKVGDFYFDLDITRLRYMGGSSNHWAGWCRVLDKLDFEPKAWAPDTGWPIRRADIEPYLTEVRDILELPDFRPDVPISDDIRWVQLIKSPAVRFAEKFADELDKSGNIAVVLNTYATELAGDGKRVTGAKLWSNGQDAGAFSADYFIVCTGGLENSRLLLWSNQRSNGGVVPNATALGRYWMEHPTFEGGNAILADYGEFEVDAVNEAFFSPTLAAMERLRIMNFGIRLIETPYAGVKHVIADLACTAPDMAEWVAYQLSQNLRCAAQLYVAWEQAPLASNQIELSKTDVDHAGVPRIELHWKKSELERRTLVEGLKLFGTTLIEKDLGRVRLMDWIANGEDYPTDEETAGHHHMGGTRMGIDMTRSVVDANCKVHGMDNLYVGGSSVFCTSGQANPTTTITALACRLGEHLSKVVAV | not soluble
STGKAKPKKHTAKELQAKADAALTNRGGGKAGLADRTGKEKGGHAKYECPHCKITVPDLKTMQIHHESKHPKLTYEEPRNLHEALAAPAESSKPKPGIRGSLKK | soluble
LVPRGSHMTNDTSGVLTIATTHTQARYSLPEVIKAFRELFPEVRLELIQGTPQEIATLLQNGEADIGIASERLSNDPQLVAFPWFRWHHSLLVPHDHPLTQISPLTLESIAKWPLITYRQGITGRSRIDDAFARKGLLADIVLSAQDSDVIKTYVALGLGIGLVAEQSSGEQEEENLIRLDTRHLFDANTVWLGLKRGQLQRNYVWRFLELCNAGLSVEDIKRQVMES | soluble
GHMGITRDVQVPDVRGQSSADAIATLQNRGFKIRTLQKPDSTIPPDHVIGTDPAANTSVSAGDEITVNVSTGPEQREIPDVSTLTYAEAVKKLTAAGFGRFKQANSPSTPELVGKVIGTNPPANQTSAITNVVIIIVGSGPATKDIPDVAGQTVDVAQKNLNVYGFTKFSQASVDSPRPAGEVTGTNPPAGTTVPVDSVIELQVSKGNQFVMPDLSGMFWVDAEPRLRALGWTGMLDKGADVDAGGSQHNRVVYQNPPAGTGVNRDGIITLRFGQ | soluble
MNINEILKKLINKSDLEINEAEELAKAIIRGEVPEILVSAILVALRMKGESKNEIVGFARAMRELAIKIDVPNAIDTAGTGGDGLGTVNVSTASAILLSLVNPVAKHGNRAVSGKSGSADVLEALGYNIIVPPERAKELVNKTNFVFLFAQYYHPAMKNVANVRKTLGIRTIFNILGPLTNPANAKYQLMGVFSKDHLDLLSKSAYELDFNKIILVYGEPGIDEVSPIGNTFMKIVSKRGIEEVKLNVTDFGISPIPIEKLIVNSAEDSAIKIVRAFLGKDEHVAEFIKINTAVALFALDRVGDFREGYEYADHLIEKSLDKLNEIISMNGDVTKLKTIVVKSSG | soluble
MTNGFPILRLPSKPLRSILQTMKFVELVSISFTSKVAKRHVKALNMKVSYINMFLSRLTIRLVVNFNGTLPLNFRIPDRNVSEPRKLNKKLNYMKVKEGPIFEETEVFEWKPSGIRFKEIANHVLEIFHKSEFSTLMISHDYDYKTMLQELKDFKIRKLCISSDRIQNSELRRNLLEKYSRQFRELALDYHSLKPQEFHLIVSISYNNCYLYKVPMKLEDLLVSNIFLMCIDKPCPLKQLCLFLKHWINGSNDRLEYLEMNLPANSTKTQFISIALNGIDYQLASTDKEWESANNGLIKTTVVKTGGFDIRQNDGTIATVTVDETFQKLRMFVWK | not soluble
LDFDILTNDGTHRNMKLLIDLKNIFSRQLPKMPKEYIVKLVFDRHHESMVILKNKQKVIGGICFRQYKPQRFAEVAFLAVTANEQVRGYGTRLMNKFKDHMQKQNIEYLLTYADNFAIGYFKKQGFTKEHRMPQEKWKGYIKDYDGGTLMECYIHPYVDYGR | soluble
MSHQEQQEQEIEALEAIYSEEEIHVASRDYPNIELSIQLKSNQYEDPTDDDFDVELGIEFTENYPDEIPIITLNGIEDAFTAERIAESIDKLRSVAEENLGMVMVFAIVSALQDEIGELVDVKKRAKEEKVEIEKEKKEAESRKKFEGTVVTPDTFRAWKDRFDEERKAEIDAAEKERLASLAGRLTGRQLFLRDATLNLSDVTLIGAQDEVEIDESLFDNEELEGLEMDSEEEEEDDEE | soluble
MGSDKIHHHHHHMKLIATDMDGTLLNDERKISKENAEAIKAAQQDGIHVVVATGRDFKEASMPLKEAGLTCPILCVNGAEERSANGELIHAVSLAKNEALTILDILTAADVYFEVYTNRGAFTDDYEKGLEIVIDVLQSAGSDDSYEKMREIAKHRFESGAVQLTEDYTKLIDSTAVYKFLAFSRDETKRQAAKDDLEKKDVFSVSASASDNLEITHWQAQKGIALRRLAERLGINSDDVMAIGDNLNDVSMLKYAGTAVAMENGEAEVKQLADFVTASNEDNGVAKAINKWLK | not soluble
MFQGCYGGTQKHEPDLHIVLERAWQQGLQKVIVTAGCLKDVDEALELASKDERIYTTVGTHPTRCEEFVPDPEGYYDQLRSRIKANRTKVRAVGECGLDYDRLHFCAQETQRLYFEKQLDLAAEFKLPLFLHMRNAAEDFMGILERNRNKIEECGGGVVHSFTGTLEEAQRILAFGGLYIGFNGCSLKTDENAEVVRKLPNDRIMLETDCPWCGIRPSHAGHKHVTTKFPTVKKKEKWTAESLIDGRCEPCQISQVLESIAGIKQEPKEQLAALYYQNTLDLFFGTGESKELEHHHHHH | not soluble
MSLDFLSQCTSGGCGAKIESRVLNQLLQHLPETPANERLLVGFEHADDAAVYQITSEKALISTVDFFSPMVNDPLSFGKIAVANALSDVYAMGGTVLYALNLVCFPQKMSKEWLEQMLLGGSLKLKEAGALLAGGHSIYDHEPKYGLAVTGEVHPENLWHNNTPQVGDVLILTKALGVGIIQAAVRGQLAKQTEQKIAQDSMERLNKYAAANARSYAVHACTDVTGFGLLIHAKEMADNQVTLLIDTEALPTITGALAYAAECLVTAAGQRNRQTIGTTIDYSKISMEMQELLFDPQTSGGLLISVAADEAAACLAAIQKEDPVAKIIGEVLPKEQQAVVLLEGHHHHHH | not soluble
MGSDKIHHHHHHMPTVERHIRGKWACDSCETLIQAPVPPQVIDKGIPTAGLLAQVLVAKYADHLPLYRQERMFGRAGLEIPRSTLAEWVGACGVQLQPLVDALRNTLLEHSVLHADETPVSMLAPGKKKTHKAYVWAYCTTPFADLKAAIYDFAPSRAGEHARTFLGDWRGKLVCDDYAGYKAGFGNGITEIGCMAHARRKFYDLHEANKSELAAKALEYIGGLYEIERETKDLPPDMRREIRQTKAKPLADALHQWMLAHRQKVPDGSGTAKALDYSLKRWEALTRYLDDGAVPIDNNWVENQIRPWALGRSNWLFAGSLRSGQRAAAVMTLIQSAKLNRHDPYAYLKDVLTRLPTQKNNAIDELLPHNWKPAIPNKV | not soluble
MRILFIGDVVGSLGREALATYVPKLKKKYRPQVTIANGENAASGRGITGKIYKKFLQDGVDVVTMGNHTWDNKDIFEFIDDAKKMVRPANFPEDVPGQGMVFVKVNQLELAVINLQARTFMVPLEDPFKKAAELVAIARKRTPLIFVDFHGETTSEKQAMSWFLDGQVSAVVGTHTHVQTNDARILPKGTAFLSDVGMTGPYDGILGMKREPIIEKFMTALPKRFEVVETGRTILSACILEIDDQTGQAKMIEPIQISEDRPFQE | not soluble
MEPPLWVFGYGSLIWDPGFPVARSVIARLDGWHRSFCMHSIHYRGTATDPGLVLALDAAPGGACLGVGFQVTPGAEAETLAALRKRELISNAYLERWLPVTLATGETVEAVSYVIDPDHGQYCGGLDLEAQAQIIARAAGERGPNRDYLLHTVAHLQSLGISDPDLCWLATRVRALGNDPVSAAALEHHHHHH | not soluble
ELYVVASPKSPIMEINKEQLSALYLGRNRVVGNTYINQVLDRSGTVRQRFFLQVTNMQESQINAYWAKLKFSGRLRAPESVVSEQELIAKLEENPFSIGYTDQVPSDALKVLLVL | not soluble
MGHHHHHHSHMARLILERFLQEHEETPPSKSIINSMLRDPSQIPDGVLANQVYQCIVNDCCYGPLVDCIKHAIGHEHEVLLRDLLLEKNLSFLDEDQLRAKGYDKTPDFILQVPVAVEGHIIHWIESKASFGDECSHHAYLHDQFWSYWNRFGPGLVIYWYGFIQELDCNRERGILLKACFPTNIVTLCHSIA | not soluble
MEESKTPHVAIIPSPGMGHLIPLVEFAKRLVHLHGLTVTFVIAGEGPPSKAQRTVLDSLPSSISSVFLPPVDLTDLSSSTRIESRISLTVTRSNPELRKVFDSFVEGGRLPTALVVDLFGTDAFDVAVEFHVPPYIFYPTTANVLSFFLHLPKLDETVSCEFRELTEPLMLPGCVPVAGKDFLDPAQDRKDDAYKWLLHNTKRYKEAEGILVNTFFELEPNAIKALQEPGLDKPPVYPVGPLVNIGKQEAKQTEESECLKWLDNQPLGSVLYVSFGSGGTLTCEQLNELALGLADSEQRFLWVIRSPSGIANSSYFDSHSQTDPLTFLPPGFLERTKKRGFVIPFWAPQAQVLAHPSTGGFLTHCGWNSTLESVVSGIPLIAWPLYAEQKMNAVLLSEDIRAALRPRAGDDGLVRREEVARVVKGLMEGEEGKGVRNKMKELKEAACRVLKDDGTSTKALSLVALKWKAHKKELEQNGNH | soluble
MAHHHHHHMRKKKTKDVPTVFIECALEGEGEKLCVRWLFGMGVGGKPYDADEYDATIVWVPSDYAFHGDKFTSPLRPIPTKNPVAVVRIPVYLCRKKALRSCGGNPMLLSVYGSYGECCDVVFENERLSLLDRGFVWGFAAVCGGSELGAAWHKAGCGLQRATSVNDFVSVSFYVQETGWCAAGQIVTHGSSAGVFVATAAMCVAPSLPLAVIALVPCVDCLTTLMDDSLPLTVSNWEEFGNPRDDADAYRLLRAMLPMDNIPSVGVALPHMLLLTAWHDTRVGFWESLAFTARLRAREMEEGAATR | soluble
